Results from patent US20180155451A1 (published 2018).

Legend:
[1] = target: T1, FcγRIIIa extracellular domain with C-terminal His tag (human, UniProt P08637 17-208); experiment: SPR relative binding; GpH7-B3/GpL16-k0 = 100
T1 construct: extracellular domain; also called FcgRIIIa; 3a; not shown: His tag at the C terminus
Experimental: Analysis of interaction between objective antibody and the FcγR was carried out using Biacore T100 (GE Healthcare). HBS-EP+ (GE Healthcare) was used as the running buffer, and the measurement temperature was set to 25° C. Chips produced by immobilizing the antigen peptide by the amine coupling method to a Series S Sencor Chip CM5 (GE Healthcare), or alternatively, chips produced by allowing preliminarily biotinylated antigen peptides to interact with and immobilize onto a Series S Sensor Chip SA (certified) (GE Healthcare) were used. Antibodies of interest were captured onto an antigen peptide-immobilized chip, and allowed to interact to each FcγR diluted with running buffer. To regenerate and repeatedly use the chip, the antibodies captured on the chip were washed off by reacting 10 mM glycine-HCl, pH 1.5.
The FcγR-binding activity of each antibody was assessed primarily using as an indicator the FcγR-binding activity and dissociation constant for FcγR.

[2] = target: T2, FcγRIa extracellular domain with C-terminal His tag (human, UniProt P12314 16-292); experiment: SPR (Biacore), relative FcγRIa binding, GpH7-A5/GpH7-B3/GpL16-k0 (HeCon Ab) = 100
T2 construct: extracellular domain; soluble analyte in Biacore; also called FcgRI; CD64
T2 sequence (P12314 16-292): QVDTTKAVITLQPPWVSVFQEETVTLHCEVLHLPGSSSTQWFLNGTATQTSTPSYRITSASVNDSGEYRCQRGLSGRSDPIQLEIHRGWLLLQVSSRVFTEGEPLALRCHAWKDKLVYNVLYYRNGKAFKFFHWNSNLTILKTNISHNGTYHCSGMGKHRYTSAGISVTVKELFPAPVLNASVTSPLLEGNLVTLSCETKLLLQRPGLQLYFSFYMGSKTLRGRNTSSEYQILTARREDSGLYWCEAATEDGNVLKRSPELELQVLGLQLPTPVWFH

T1 sequence (P08637 17-208): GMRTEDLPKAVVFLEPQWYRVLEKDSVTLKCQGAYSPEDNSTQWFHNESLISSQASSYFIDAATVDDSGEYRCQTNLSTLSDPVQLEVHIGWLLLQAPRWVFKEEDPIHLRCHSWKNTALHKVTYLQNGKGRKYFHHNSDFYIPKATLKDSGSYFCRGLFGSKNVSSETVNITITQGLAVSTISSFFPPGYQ

B1: GpH7-B3 variant S337_04F/GpL16-k0 (antibody, human IgG1, kappa)
heavy: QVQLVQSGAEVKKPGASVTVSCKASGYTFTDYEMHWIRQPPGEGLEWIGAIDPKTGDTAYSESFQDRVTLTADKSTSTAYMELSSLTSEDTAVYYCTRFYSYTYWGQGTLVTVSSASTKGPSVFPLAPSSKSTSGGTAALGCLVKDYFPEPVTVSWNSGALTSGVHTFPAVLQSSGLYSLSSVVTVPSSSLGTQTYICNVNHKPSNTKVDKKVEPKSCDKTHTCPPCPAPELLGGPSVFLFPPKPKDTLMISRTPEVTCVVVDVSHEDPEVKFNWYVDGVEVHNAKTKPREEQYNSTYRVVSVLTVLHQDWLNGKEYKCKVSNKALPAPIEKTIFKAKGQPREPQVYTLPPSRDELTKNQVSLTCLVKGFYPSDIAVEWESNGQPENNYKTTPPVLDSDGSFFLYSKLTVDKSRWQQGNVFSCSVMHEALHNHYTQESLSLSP
light: DIVMTQSPLSLPVTPGEPASISCQASESLVHSNRNTYLHWYLQKPGQSPQLLIYKVSNRFSGVPDRFSGSGSGTDFTLKISRVEAEDVGVYYCSQNTHVPPTFGQGTKVEIERTVAAPSVFIFPPSDEQLKSGTASVVCLLNNFYPREAKVQWKVDNALQSGNSQESVTEQDSKDSTYSLSSTLTLSKADYEKHKVYACEVTHQGLSSPVTKSFNRGEC
notes: also called Ho Ab S337_04F
Question: With B1 as the binder, how does the Ho/Con_3a [1] read?
Answer: 95.6 % of control

B2: GpH7-B3 variant E333_09D/GpL16-k0 (antibody, human IgG1, kappa)
heavy: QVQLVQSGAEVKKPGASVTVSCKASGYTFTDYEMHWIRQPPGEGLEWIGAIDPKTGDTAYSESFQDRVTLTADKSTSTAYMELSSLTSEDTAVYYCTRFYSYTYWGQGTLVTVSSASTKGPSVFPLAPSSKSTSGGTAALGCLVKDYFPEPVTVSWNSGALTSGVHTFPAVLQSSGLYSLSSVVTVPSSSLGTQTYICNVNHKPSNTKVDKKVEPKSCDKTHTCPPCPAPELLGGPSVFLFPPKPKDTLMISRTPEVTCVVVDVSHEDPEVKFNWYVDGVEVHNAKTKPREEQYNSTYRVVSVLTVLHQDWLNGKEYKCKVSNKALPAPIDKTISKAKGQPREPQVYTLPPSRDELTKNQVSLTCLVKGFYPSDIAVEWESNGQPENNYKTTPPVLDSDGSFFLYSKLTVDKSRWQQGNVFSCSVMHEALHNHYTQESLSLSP
light: DIVMTQSPLSLPVTPGEPASISCQASESLVHSNRNTYLHWYLQKPGQSPQLLIYKVSNRFSGVPDRFSGSGSGTDFTLKISRVEAEDVGVYYCSQNTHVPPTFGQGTKVEIERTVAAPSVFIFPPSDEQLKSGTASVVCLLNNFYPREAKVQWKVDNALQSGNSQESVTEQDSKDSTYSLSSTLTLSKADYEKHKVYACEVTHQGLSSPVTKSFNRGEC
notes: also called Ho Ab E333_09D
Question: How did the Ho/Con_3a [1] turn out when B2 was run?
Answer: 109 % of control

B3: GpH7-B3 variant E333_02A/GpL16-k0 (antibody, human IgG1, kappa)
heavy: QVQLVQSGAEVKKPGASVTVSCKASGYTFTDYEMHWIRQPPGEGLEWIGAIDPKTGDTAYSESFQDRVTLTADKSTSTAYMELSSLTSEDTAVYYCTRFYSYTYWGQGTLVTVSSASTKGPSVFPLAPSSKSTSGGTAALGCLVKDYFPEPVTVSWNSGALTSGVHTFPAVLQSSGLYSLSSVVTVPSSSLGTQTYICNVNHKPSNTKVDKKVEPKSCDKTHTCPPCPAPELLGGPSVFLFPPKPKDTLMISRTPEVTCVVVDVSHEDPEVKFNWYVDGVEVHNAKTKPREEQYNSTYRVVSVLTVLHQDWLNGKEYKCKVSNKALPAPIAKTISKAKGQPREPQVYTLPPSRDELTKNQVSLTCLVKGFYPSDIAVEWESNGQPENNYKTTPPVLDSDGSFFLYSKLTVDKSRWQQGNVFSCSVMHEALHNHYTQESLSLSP
light: DIVMTQSPLSLPVTPGEPASISCQASESLVHSNRNTYLHWYLQKPGQSPQLLIYKVSNRFSGVPDRFSGSGSGTDFTLKISRVEAEDVGVYYCSQNTHVPPTFGQGTKVEIERTVAAPSVFIFPPSDEQLKSGTASVVCLLNNFYPREAKVQWKVDNALQSGNSQESVTEQDSKDSTYSLSSTLTLSKADYEKHKVYACEVTHQGLSSPVTKSFNRGEC
notes: also called Ho Ab E333_02A
Question: With B3 as the binder, how does the Ho/Con_3a [1] read?
Answer: 93.3 % of control

B4: GpH7-B3 variant E333_20W/GpL16-k0 (antibody, human IgG1, kappa)
heavy: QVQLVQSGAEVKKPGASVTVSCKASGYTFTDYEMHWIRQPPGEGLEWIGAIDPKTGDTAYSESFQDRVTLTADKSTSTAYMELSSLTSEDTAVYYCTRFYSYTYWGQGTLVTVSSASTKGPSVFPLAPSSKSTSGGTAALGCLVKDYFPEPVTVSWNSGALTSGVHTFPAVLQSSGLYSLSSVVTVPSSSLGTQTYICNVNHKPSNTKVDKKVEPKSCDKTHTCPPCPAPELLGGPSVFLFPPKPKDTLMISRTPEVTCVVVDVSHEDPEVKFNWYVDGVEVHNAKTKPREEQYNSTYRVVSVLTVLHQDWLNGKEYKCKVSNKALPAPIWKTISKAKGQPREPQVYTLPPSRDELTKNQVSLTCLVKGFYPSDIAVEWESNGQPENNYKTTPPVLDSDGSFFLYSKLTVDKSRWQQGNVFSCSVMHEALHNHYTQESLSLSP
light: DIVMTQSPLSLPVTPGEPASISCQASESLVHSNRNTYLHWYLQKPGQSPQLLIYKVSNRFSGVPDRFSGSGSGTDFTLKISRVEAEDVGVYYCSQNTHVPPTFGQGTKVEIERTVAAPSVFIFPPSDEQLKSGTASVVCLLNNFYPREAKVQWKVDNALQSGNSQESVTEQDSKDSTYSLSSTLTLSKADYEKHKVYACEVTHQGLSSPVTKSFNRGEC
notes: also called Ho Ab E333_20W
Question: B4 was tested. Which Ho/Con_3a [1] did it give?
Answer: 90.9 % of control

B5: GpH7-A5/GpH7-B3 variant Y296_07I/GpL16-k0 (antibody, human IgG1, kappa)
heavy 1: not shown
heavy 2: not shown
light: DIVMTQSPLSLPVTPGEPASISCQASESLVHSNRNTYLHWYLQKPGQSPQLLIYKVSNRFSGVPDRFSGSGSGTDFTLKISRVEAEDVGVYYCSQNTHVPPTFGQGTKVEIERTVAAPSVFIFPPSDEQLKSGTASVVCLLNNFYPREAKVQWKVDNALQSGNSQESVTEQDSKDSTYSLSSTLTLSKADYEKHKVYACEVTHQGLSSPVTKSFNRGEC
notes: heterodimerized antibody, mutation in one H chain only; also called Y296_07I He Ab
Question: With B5 as the binder, how does the He/Con_1a [2] read?
Answer: 104 % of control

B6: GpH7-A5/GpH7-B3 variant Y300_07I/GpL16-k0 (antibody, human IgG1, kappa)
heavy 1: not shown
heavy 2: not shown
light: DIVMTQSPLSLPVTPGEPASISCQASESLVHSNRNTYLHWYLQKPGQSPQLLIYKVSNRFSGVPDRFSGSGSGTDFTLKISRVEAEDVGVYYCSQNTHVPPTFGQGTKVEIERTVAAPSVFIFPPSDEQLKSGTASVVCLLNNFYPREAKVQWKVDNALQSGNSQESVTEQDSKDSTYSLSSTLTLSKADYEKHKVYACEVTHQGLSSPVTKSFNRGEC
notes: heterodimerized antibody, mutation in one H chain only; also called Y300_07I He Ab
Question: How did the He/Con_1a [2] turn out when B6 was run?
Answer: 108 % of control

B7: GpH7-B3 variant E333_03V/GpL16-k0 (antibody, human IgG1, kappa)
heavy: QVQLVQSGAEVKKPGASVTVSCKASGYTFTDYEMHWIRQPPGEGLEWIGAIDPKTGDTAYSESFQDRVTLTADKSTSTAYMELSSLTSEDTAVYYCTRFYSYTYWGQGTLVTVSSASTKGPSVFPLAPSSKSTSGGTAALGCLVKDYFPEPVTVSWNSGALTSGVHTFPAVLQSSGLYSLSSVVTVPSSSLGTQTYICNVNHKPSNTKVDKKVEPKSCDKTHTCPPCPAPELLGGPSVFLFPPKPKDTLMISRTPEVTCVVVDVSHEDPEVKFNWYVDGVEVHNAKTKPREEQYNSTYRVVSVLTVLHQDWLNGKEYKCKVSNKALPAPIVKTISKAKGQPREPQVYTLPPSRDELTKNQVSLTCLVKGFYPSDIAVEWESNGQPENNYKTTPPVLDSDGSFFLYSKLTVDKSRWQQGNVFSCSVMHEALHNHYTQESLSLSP
light: DIVMTQSPLSLPVTPGEPASISCQASESLVHSNRNTYLHWYLQKPGQSPQLLIYKVSNRFSGVPDRFSGSGSGTDFTLKISRVEAEDVGVYYCSQNTHVPPTFGQGTKVEIERTVAAPSVFIFPPSDEQLKSGTASVVCLLNNFYPREAKVQWKVDNALQSGNSQESVTEQDSKDSTYSLSSTLTLSKADYEKHKVYACEVTHQGLSSPVTKSFNRGEC
notes: also called Ho Ab E333_03V
Question: B7 was tested. Which Ho/Con_3a [1] did it give?
Answer: 86.5 % of control

B8: GpH7-B3 variant A330_07I/GpL16-k0 (antibody, human IgG1, kappa)
heavy: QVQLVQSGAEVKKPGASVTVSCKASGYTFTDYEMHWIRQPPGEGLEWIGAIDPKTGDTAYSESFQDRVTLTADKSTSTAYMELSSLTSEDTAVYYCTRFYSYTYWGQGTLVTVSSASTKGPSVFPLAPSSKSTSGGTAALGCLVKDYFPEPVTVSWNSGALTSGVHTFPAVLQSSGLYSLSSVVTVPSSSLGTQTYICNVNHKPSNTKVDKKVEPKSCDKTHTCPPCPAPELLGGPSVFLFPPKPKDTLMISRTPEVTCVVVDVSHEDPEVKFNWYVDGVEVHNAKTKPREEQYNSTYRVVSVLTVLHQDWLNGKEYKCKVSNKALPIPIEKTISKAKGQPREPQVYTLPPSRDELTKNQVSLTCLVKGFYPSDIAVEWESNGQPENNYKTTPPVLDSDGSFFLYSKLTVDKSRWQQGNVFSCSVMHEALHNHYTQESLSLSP
light: DIVMTQSPLSLPVTPGEPASISCQASESLVHSNRNTYLHWYLQKPGQSPQLLIYKVSNRFSGVPDRFSGSGSGTDFTLKISRVEAEDVGVYYCSQNTHVPPTFGQGTKVEIERTVAAPSVFIFPPSDEQLKSGTASVVCLLNNFYPREAKVQWKVDNALQSGNSQESVTEQDSKDSTYSLSSTLTLSKADYEKHKVYACEVTHQGLSSPVTKSFNRGEC
notes: also called Ho Ab A330_07I
Question: Which Ho/Con_3a [1] does the source give for B8 here?
Answer: 93 % of control

B9: GpH7-B3 variant E333_13S/GpL16-k0 (antibody, human IgG1, kappa)
heavy: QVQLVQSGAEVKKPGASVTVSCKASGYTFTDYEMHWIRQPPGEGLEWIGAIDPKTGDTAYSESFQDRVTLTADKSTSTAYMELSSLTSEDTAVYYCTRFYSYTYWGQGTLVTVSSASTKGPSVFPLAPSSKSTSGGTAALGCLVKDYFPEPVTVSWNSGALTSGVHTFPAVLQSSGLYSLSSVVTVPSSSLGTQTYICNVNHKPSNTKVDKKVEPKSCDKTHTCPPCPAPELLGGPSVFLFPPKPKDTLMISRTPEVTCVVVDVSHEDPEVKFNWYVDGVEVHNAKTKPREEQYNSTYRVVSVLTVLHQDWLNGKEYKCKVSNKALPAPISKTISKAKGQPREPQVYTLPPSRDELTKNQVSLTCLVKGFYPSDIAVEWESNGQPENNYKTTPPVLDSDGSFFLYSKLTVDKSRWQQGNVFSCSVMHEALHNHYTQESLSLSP
light: DIVMTQSPLSLPVTPGEPASISCQASESLVHSNRNTYLHWYLQKPGQSPQLLIYKVSNRFSGVPDRFSGSGSGTDFTLKISRVEAEDVGVYYCSQNTHVPPTFGQGTKVEIERTVAAPSVFIFPPSDEQLKSGTASVVCLLNNFYPREAKVQWKVDNALQSGNSQESVTEQDSKDSTYSLSSTLTLSKADYEKHKVYACEVTHQGLSSPVTKSFNRGEC
notes: also called Ho Ab E333_13S
Question: For B9, which Ho/Con_3a [1] is on record?
Answer: 95.1 % of control

B10: GpH7-A5/GpH7-B3 variant Y300_16H/GpL16-k0 (antibody, human IgG1, kappa)
heavy 1: not shown
heavy 2: not shown
light: DIVMTQSPLSLPVTPGEPASISCQASESLVHSNRNTYLHWYLQKPGQSPQLLIYKVSNRFSGVPDRFSGSGSGTDFTLKISRVEAEDVGVYYCSQNTHVPPTFGQGTKVEIERTVAAPSVFIFPPSDEQLKSGTASVVCLLNNFYPREAKVQWKVDNALQSGNSQESVTEQDSKDSTYSLSSTLTLSKADYEKHKVYACEVTHQGLSSPVTKSFNRGEC
notes: heterodimerized antibody, mutation in one H chain only; also called Y300_16H He Ab
Question: For B10, which He/Con_1a [2] is on record?
Answer: 111 % of control
